Drawing on paper PMC12390807, “Developing and validating anti-ADA2 single-chain antibodies coupled to alkaline phosphatase for diagnosing pleural tuberculosis” (Frontiers in Immunology, 2025), this text covers Kd for one molecule.

Some results are limits rather than exact numbers.

The target in the test is T1, human adenosine deaminase 2 (ADA2) (Homo sapiens, UniProt Q9NZK5).
T1 construct: adenosine deaminase 2 (ADA2), human, recombinant, produced in S2 insect cells; also called hADA2; recombinant ADA2
The experiment in a line: BLI; apparent dissociation constant; which partner was immobilised and the conditions are not told. To be noted: both partners purified.

T1 sequence (Q9NZK5 30-511): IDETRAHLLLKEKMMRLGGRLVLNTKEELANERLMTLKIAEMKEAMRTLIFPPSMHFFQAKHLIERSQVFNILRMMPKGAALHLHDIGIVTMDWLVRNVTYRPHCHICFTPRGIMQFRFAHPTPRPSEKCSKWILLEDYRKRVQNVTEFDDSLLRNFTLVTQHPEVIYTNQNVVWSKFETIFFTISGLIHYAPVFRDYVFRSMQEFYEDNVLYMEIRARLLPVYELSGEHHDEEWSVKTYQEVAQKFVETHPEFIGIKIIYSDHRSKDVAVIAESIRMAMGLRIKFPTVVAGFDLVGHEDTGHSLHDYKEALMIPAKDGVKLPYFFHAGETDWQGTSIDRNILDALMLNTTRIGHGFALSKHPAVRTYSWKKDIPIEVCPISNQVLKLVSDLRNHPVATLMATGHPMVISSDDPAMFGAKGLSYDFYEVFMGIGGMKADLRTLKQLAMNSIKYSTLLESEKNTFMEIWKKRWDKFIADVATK

B1: H11 anti-ADA2 scFv-AP (single-chain antibody fused with bacterial alkaline phosphatase) (scFv, V domains shown)
VH: EVQLLESGGGLVQPGGSLRLSCAASGFTFSSYSMHWVRQAPGKGLEWVSSIWGVNGETDYADSVKGRFTISRDNSKNTLYLQMNSLRAEDTAVYYCAADWSLDYWGQGTLVTVSS
VL: EIVLTQSPGTLSLSPGERATLSCRASQSVSSSYLAWYQQKPGQAPRLLIYGASSRATGVPDRFSGSGSGTDFTLTISRLEPEDFAVYYCQQSSSYPWTFGQGTKVEIK
notes: The clone name H11 appears only in the ELISA methods; also called H11 scFv-AP; sc-anti-ADA2 alkaline phosphatase fusion protein; source: E. coli XL1-Blue (pAK600H vector), purified (Nickel Sepharose HiTrap / Ni-NTA Chelating Sepharose)
Turning to B1, the Kd is under 10 nM.
